Here are results for eleven molecules from patent US20160009800A1 (XOMA US, published 2016).

Numbering of substitutions follows the chain as printed.

The target of experiment [1] is T1, human insulin receptor (human, UniProt P06213 28-1382).
T1 construct: whole, on cells; Uncomplexed receptor on serum-starved cells (CHOK1 transfectants or IM-9); also called hINSR; INSR
As to the kind of experiment: FACS, serum-starved CHO-K1 cells expressing human INSR, no insulin. On the technique in general: In flow cytometry, cells or beads pass a laser one at a time.

Experiment [2] addresses T2, mouse insulin receptor (mouse, UniProt P15208 28-1372).
T2 construct: whole, on cells; also called muINSR; mINSR
As to the kind of experiment: FACS, serum-starved CHO-K1 cells expressing mouse INSR, no insulin.

Experiment [3] concerns the target T3, human insulin receptor complexed with human insulin (human, UniProt P06213 28-1382; P01308 25-54; P01308 90-110).
T3 construct: whole, on cells;mature; also called hINSR-hINS complex; INS/INSR complex
As to the kind of experiment: FACS, serum-starved CHO-K1 cells expressing human INSR, with insulin.
Description: (§1) Twenty five microliter aliquots of cells were plated into 96 well plates, mixed with 25 ul of antibody or PPE and incubated on ice for 1 h.
(§2) The cells were then washed once with FACS buffer and the binding of the antibody was detected by the addition of 25 ul of an appropriate fluorochrome-conjugated secondary antibody. […] After a final 15 min incubation on ice the cells were washed and the pellets resuspended in FACS buffer. The cells were analyzed on a FACSCAN™ (Becton-Dickinson, Milipitas, Calif.) and the data analyzed in both FLOWJO™ (Treestar, Ashland, Oreg.) and Microsoft Excel™.

Experiment [4] concerns the target T4, mouse insulin receptor complexed with human insulin (mouse; human, UniProt P15208 28-1372; P01308 25-54; P01308 90-110).
T4 construct: whole, on cells;mature; also called muINSR/hINS complex
Kind of experiment: FACS, serum-starved CHO-K1 cells expressing mouse INSR, with insulin.
Description: as §1, §2

For experiment [5], the target named is T3, human insulin receptor complexed with …. Kind of experiment: FACS, CHO-K1 human INSR cells, signal with insulin divided by signal without insulin.
Description: as §1, §2
Experiment [6] deals with T4, mouse insulin receptor complexed with …. As to the kind of experiment: FACS, CHO-K1 mouse INSR cells, signal with insulin divided by signal without insulin.
Description: as §1, §2
Experiment [7] concerns the target T1, human insulin receptor. Kind of experiment: FACS, serum-starved CHO-K1 cells expressing human INSR, no insulin [cont'd].
Description: as §1, §2
Experiment [8] addresses T2, mouse insulin receptor. As to the kind of experiment: FACS, serum-starved CHO-K1 cells expressing mouse INSR, no insulin [cont'd].
Description: as §1, §2
Experiment [9] addresses T3, human insulin receptor complexed with …. As to the kind of experiment: FACS, serum-starved CHO-K1 cells expressing human INSR, with insulin [cont'd].
Description: as §1, §2
Experiment [10] addresses T4, mouse insulin receptor complexed with …. As to the kind of experiment: FACS, serum-starved CHO-K1 cells expressing mouse INSR, with insulin [cont'd].
Experiment [11] addresses T3, human insulin receptor complexed with …. Kind of experiment: FACS, CHO-K1 human INSR cells, signal with insulin divided by signal without insulin [cont'd].
Description: as §1, §2
For experiment [12], the target named is T4, mouse insulin receptor complexed with …. As to the kind of experiment: FACS, CHO-K1 mouse INSR cells, signal with insulin divided by signal without insulin [cont'd].

B1: Ab058 (antibody, IgG2, V domains shown)
VH: QLQLQQWGAGLLKPSETLSLTCAVYSGSFSGYYYSWIRQSPGRGLEWIGDISHTGSTDYNPSLKTRVTISVDTSKNQFSLNLNSVTAADTAVYYCARDAPKGGSGLYLFDYWGQGTLVTVSS
VL: QSVLTQPPSVSGAPGQRVTISCTGSRSNIGADHDVHWYQQIPGRAPKLLIYGNSNRPSGVPDRFSGSRSGTSASLAITGLQAEDEADYYCQSYDNSLSGSVFGGGTKLTVL
notes: also called XPA.015.202
Take B1: the “FACS area under log transformed data MFI” value with human insulin receptor [1] worked out at 1410; in the experiment with mouse insulin receptor [2] it was 812; in experiment [3], 370; in [4] it was 388. Moreover, the “FACS area under log transformed data MFI ratio (+insulin/-insulin)” value in [5] came out at 0.26; in experiment [6], 0.48.

B2: Ab055 (antibody, IgG2, V domains shown)
VH: QVQLVQSGAEVKKPGSSVKVSCKASGGTFSSYAISWVRQAPGQGLEWMGGIIPIFGTANYAQKFQGRVTITADESTSTAYMELSSLRSEDTAVYYCARGQGWLRFYGMDVWGQGTTVTVSS
VL: SYELTQLPSVSVSPGQTARITCSGDALPNKYAYWYQQKSGQAPVLVIYEDTRRPSEIPERFSASSSGTMATLTISGAQVEDEAEYYCYSTDSSGNERVFGGGTKLTVL
notes: also called XPA.015.198
For B2, the “FACS area under log transformed data MFI” value turned out to be 1190 in the experiment with human insulin receptor [1], 1300 in the experiment with mouse insulin receptor [2], 759 in [3] and 1050 in experiment [4]. For the same molecule, the “FACS area under log transformed data MFI ratio (+insulin/-insulin)” value in experiment [5] came to 0.64; in experiment [6], 0.81.

B3: Ab051 (antibody, IgG2, V domains shown)
VH: QVQLVQSGAEVKKPGSSVKVSCKASGGTFSSYAISWVRQAPGQGLEWMGGIIPIFGTANYAQKFQGRVTITADESTSTAYMELSSLRSEDTAVYYCAGKLYSRDYWYFDLWGRGTLVTVSS
VL: SSELTQDPAVSVALGQTVRITCQGNSLRSFYATWYQQKPGQAPVLVIYGKNIRPSGIPDRFSGSNSGDTASLTITGTQAEDEADYYCNSRDNNRNHLLFAGGTKVTVL
notes: also called XPA.015.194
As for B3, the “FACS area under log transformed data MFI” value with human insulin receptor [1] was 554; with mouse insulin receptor [2] it was 663; in experiment [3], 378; in experiment [4], 470. The “FACS area under log transformed data MFI ratio (+insulin/-insulin)” value was 0.68 in experiment [5] and 0.71 in experiment [6].

B4: Ab074 (antibody, IgG2, V domains shown)
VH: EVQLVQSGAEVKKPGESLKISCKGSGYSFTSYWIGWVRQMPGKGLEWMGIIYPGDSDTRYSPSFQGQVTISADKSISTAYLQWSSLKASDTAMYYCARWDAGYSPWGQGTLVTVSS
VL: SSELTQDPAVSVALGQTVRITCQGDSLRSYYASWYQQKPGQAPVLVIYGKNNRPSGIPDRFSGSSSGNTASLTITGAQAEDEADYYCSSRDSSGDQWVFGGGTKLTVL
notes: also called XPA.015.230
For B4, the “FACS area under log transformed data MFI” value with human insulin receptor [7] worked out at 596; with mouse insulin receptor [8], 932; in [9], 260; in [10] it was 503. For the same molecule, the entries for the “FACS area under log transformed data MFI ratio (+insulin/-insulin)” value in experiment [11] and in experiment [12] were 0.44 and 0.54, respectively.

B5: Ab071 (antibody, IgG2, V domains shown)
VH: B4 VH
VL: B4 VL with I47F, D59G, S65K, S88N, D95N, Q96H
notes: also called XPA.015.227
For B5, the “FACS area under log transformed data MFI” value in the experiment with human insulin receptor [7] was 490; with mouse insulin receptor [8], 818; in experiment [10], 518. In addition, the “FACS area under log transformed data MFI ratio (+insulin/-insulin)” value in experiment [12] is 0.63.

B6: Ab082 (antibody, IgG2, V domains shown)
VH: QMQLVQSGAEVKKPGESLKISCKGSGYSFTSYWIGWVRQMPGKGLEWMGIIYPGDSDTRYSPSFQGQVTISADKSISTAYLQWSSLKASDTAMYYCARWGPDAFDIWGQGTMVTVSS
VL: EIVLTQSPDFQSVTPKETVTISCRASQNIGVSLHWYQQKPDQSPKVLIKYASQSLSGVPSRFSGTGSGTDFTLTIKSLEAEDAATYYCLQTSSLPWTFGQGTKVEIK
notes: also called XPA.015.248
Turning to B6, the entries for the “FACS area under log transformed data MFI” value (in the experiment with human insulin receptor [7]; with mouse insulin receptor [8]; in experiment [10]) were 399, 257 and 267, respectively. The “FACS area under log transformed data MFI ratio (+insulin/-insulin)” value in experiment [12] was determined as 1.04.

B7: Ab066 (antibody, IgG2, V domains shown)
VH: EVQLVQSGAEVKKPGSSVKVSCKASGGTFSSYAISWVRQAPGQGLEWMGGIIPIFGTANYAQKFQGRVTITADKSTSTAYMELSRLRSDDTAVYYCARDASYGGNSEGFDYWGQGTLVTVSS
VL: SSELTQDPAVSVAVGQSVRITCQGDSLKNFYATWYQQRPGQAPLLVIFGKNNRPSGIPDRFSGSSSGNTASLTVTGAQADDEADYYCNSPDSSNKLVVFGGGTKLTVL
notes: also called XPA.015.215
With B7, the “FACS area under log transformed data MFI” value worked out at 1560 with human insulin receptor [1], 1520 with mouse insulin receptor [2], 1160 in experiment [3] and 1140 in experiment [4]. For the same molecule, the “FACS area under log transformed data MFI ratio (+insulin/-insulin)” value came out at 0.74 in [5] and 0.76 in [6].

B8: Ab068 (antibody, IgG2, V domains shown)
VH: EVQLVQSGAEVKQPGSSVKVSCKASGGSFNSYTFSWVRQAPGQGLEWMGWISAYNGGTNYFANYALKFQGRVTMTTDTSTGTAYMELRSLRSDDTAVYYCARVRDSWSHEDYSYYYYMDVWGKGTTVTVSS
VL: DVVMTQTPLSLSVTPGQPASISCKASQSLLYTNGDTYVSWYVQKPGQAPQLLFSDVSSRFFGVPDRFSASGSGTDFTLKISRVEAEDVGVYYCVQAMYLPLVFGQGTKVEIK
notes: also called XPA.015.217
Regarding B8, the “FACS area under log transformed data MFI” value is 1420 with human insulin receptor [1], 803 with mouse insulin receptor [2], 1030 in [3] and 445 in experiment [4]. Moreover, the “FACS area under log transformed data MFI ratio (+insulin/-insulin)” value was 0.72 in experiment [5] and 0.55 in [6].

B9: Ab073 (antibody, IgG2, V domains shown)
VH: QVQLQESGPGLVKPSGTLSLTCAVSGGSISSSNWWSWVRQPPGKGLEWIGEIYHSGSTNYNPSLKSRVTISVDKSKNQFSLKLSSVTAADTAVYYCARVGAAAAWFDPWGQGTLVTVSS
VL: QSVLTQPPSVSAAAGQKVTISCSGSSSNIGNNYVTWYQHVPGTAPKLLIFDNDKRPSGIPDRFSGSKSGTSATLAITGLQTGDEADYYCGTWDSSLNPLFGGSTQLTVL
notes: also called XPA.015.229
On to B9, for which the “FACS area under log transformed data MFI” value in the experiment with human insulin receptor [7] was 729; with mouse insulin receptor [8], 307; in [9] it was 341; in experiment [10], 321. The “FACS area under log transformed data MFI ratio (+insulin/-insulin)” value in experiment [11] came out at 0.47; in experiment [12], 1.05.

B10: Ab072 (antibody, IgG2, V domains shown)
VH: QMQLVQSGAEVKKPGESLKISCKGSGYSFTGYWIGWVRQMPGKGLEWMGIIYPGDSDTRYSPSFQGQVTISADKSISTAYLQWSSLKVSDTAMYYCGRISTPYAFDIWGQGTMVTVSS
VL: SYVLTQPPSASGTPGQRVTISCSGSNSNIGSNFVTWYQQLPGAAPKLLIYTNSQRPSGVPDRFSGSRSGTSASLAISGLQSEDEADYFCAAWDDSLNGPVFGGGTQLTVL
notes: also called XPA.015.228
Consider B10, for which the “FACS area under log transformed data MFI” value with human insulin receptor [7] is 226; with mouse insulin receptor [8], 508; in experiment [10], 267. The “FACS area under log transformed data MFI ratio (+insulin/-insulin)” value in experiment [12] came out at 0.53.

B11: Ab067 (antibody, V domains shown)
VH: EVQLVQSGAEVKKPGSSVKVSCKASGGTFSSYAISWVRQAPGQGLEWMGGIIPIFGTANYAQKFQGRVTITADESTSTAYMELSSLRSEDTAVYYCARASGDYDFWSGYYGAEYFQHWGQGTLVTVSS
VL: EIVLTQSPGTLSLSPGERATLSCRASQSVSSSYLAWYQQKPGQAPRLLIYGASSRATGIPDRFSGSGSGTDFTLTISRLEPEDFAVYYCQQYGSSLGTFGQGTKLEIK
notes: also called XPA.015.216
For the molecule B11, the “FACS area under log transformed data MFI” value was 1540 in the experiment with human insulin receptor [1], 1280 with mouse insulin receptor [2], 1060 in experiment [3] and 786 in [4]. The “FACS area under log transformed data MFI ratio (+insulin/-insulin)” value was 0.69 in [5] and 0.61 in experiment [6].
